Consider 53 variants from the Human Domainome abundance scans (Beltran et al. 2025).

B1: Histone-lysine N-methyltransferase SETD2, residues 2382 to 2430; numbered along this chain, Q9BYW2 (parent)
chain: SPPKPKTIVLPPNWKTARDPEGKIYYYHVITRQTQWDPPTWESPGDDAS

± gives the uncertainty stated by the source.

In the series the parent is B1. The series is described as follows: abundance fitness (aPCA) (normalised: wild type 0, dead -1); higher = more abundant; growth selection in yeast, the domain comes from the species named. The following applies: Homo sapiens.
Regarding SPPKPKTIVLPPNWKTARDPEGKIYYYHVITRQTQWDPPTWEFPGDDAS, the abundance fitness was -0.375 ± 0.071.

In the case of SPPKPKTIVLPPNWKTARDPEGKIYYYHVITRQTQWDPPTWEHPGDDAS, the abundance fitness was -0.237 ± 0.11.

With SPPKPKTIVLPPNWKTARDPEGKIYYYHVITRQTQWDPPTWENPGDDAS, the abundance fitness was -0.369 ± 0.13.

Take SPPKPKTIVLPPNWKTARDPEGKIYYYHVITRQTQWDPPTWEWPGDDAS: the abundance fitness was -0.23 ± 0.088.

For the variant SPPKPKTIVLPPNWKTARDPEGKIYYYHVITRQTQWDPPTWETPGDDAS, the abundance fitness is -0.061 ± 0.082.

With SPPKPKTIVLPPNWKTARDPEGKIYYYHVITRQTQWDPPTWEVPGDDAS, the abundance fitness was -0.045 ± 0.055.

Turning to SPPKPKTIVLPPNWKTARDPEGKIYYYHVITRQTQWDPPTWEMPGDDAS, the abundance fitness is -0.102 ± 0.076.

As to SPPKPKTIVLPPNWKTARDPEGKIYYYHVITRQTQWDPPTWEYPGDDAS, the abundance fitness was -0.263 ± 0.097.

Regarding SPPKPKTIVLPPNWKTARDPEGKIYYYHVITRQTQWDPPTWEEPGDDAS, the abundance fitness came out at 0.193 ± 0.056.

As to SPPKPKTIVLPPNWKTARDPEGKIYYYHVITRQTQWDPPTWEIPGDDAS, the abundance fitness was -0.095 ± 0.041.

On to SPPKPKTIVLPPNWKTARDPEGKIYYYHVITRQTQWDPPTWEPPGDDAS, for which the abundance fitness was -0.321 ± 0.094.

Take SPPKPKTIVLPPNWKTARDPEGKIYYYHVITRQTQWDPPTWEDPGDDAS: the abundance fitness stood at 0.078 ± 0.075.

SPPKPKTIVLPPNWKTARDPEGKIYYYHVITRQTQWDPPTWEKPGDDAS: the abundance fitness is 0.145 ± 0.042.

Consider SPPKPKTIVLPPNWKTARDPEGKIYYYHVITRQTQWDPPTWERPGDDAS, for which the abundance fitness was -0.11 ± 0.042.

Consider SPPKPKTIVLPPNWKTARDPEGKIYYYHVITRQTQWDPPTWEQPGDDAS, for which the abundance fitness is 0.091 ± 0.08.

Take SPPKPKTIVLPPNWKTARDPEGKIYYYHVITRQTQWDPPTWELPGDDAS: the abundance fitness is -0.064 ± 0.042.

SPPKPKTIVLPPNWKTARDPEGKIYYYHVITRQTQWDPPTWEAPGDDAS: the abundance fitness was -0.048 ± 0.041.

With SPPKPKTIVLPPNWKTARDPEGKIYYYHVITRQTQWDPPTWECPGDDAS, the abundance fitness was -0.471 ± 0.11.

SPPKPKTIVLPPNWKTARDPEGKIYYYHVITRQTQWDPPTWEGPGDDAS: the abundance fitness was -0.15 ± 0.05.

With SPPKPKTIVLPPNWKTARDPEGKIYYYHVITRQTQWDPWTWESPGDDAS, the abundance fitness was -0.987 ± 0.076.

For the variant SPPKPKTIVLPPNWKTARDPEGKIYYYHVITRQTQWDPLTWESPGDDAS, the abundance fitness is -0.892 ± 0.14.

SPPKPKTIVLPPNWKTARDPEGKIYYYHVITRQTQWDPNTWESPGDDAS: the abundance fitness was -0.391 ± 0.23.

Consider SPPKPKTIVLPPNWKTARDPEGKIYYYHVITRQTQWDPCTWESPGDDAS, for which the abundance fitness is -0.812 ± 0.24.

Consider SPPKPKTIVLPPNWKTARDPEGKIYYYHVITRQTQWDPITWESPGDDAS, for which the abundance fitness was -0.835 ± 0.22.

Regarding SPPKPKTIVLPPNWKTARDPEGKIYYYHVITRQTQWDPGTWESPGDDAS, the abundance fitness is -1.04 ± 0.14.

On to SPPKPKTIVLPPNWKTARDPEGKIYYYHVITRQTQWDPATWESPGDDAS, for which the abundance fitness is -0.918 ± 0.11.

As for SPPKPKTIVLPPNWKTARDPEGKIYYYHVITRQTQWDPHTWESPGDDAS, the abundance fitness was -0.748 ± 0.27.

With SPPKPKTIVLPPNWKTARDPEGKIYYYHVITRQTQWDPRTWESPGDDAS, the abundance fitness was -0.96 ± 0.13.

For SPPKPKTIVLPPNWKTARDPEGKIYYYHVITRQTQWDPMTWESPGDDAS, the abundance fitness was -0.908 ± 0.17.

As to SPPKPKTIVLPPNWKTARDPEGKIYYYHVITRQTQWDPTTWESPGDDAS, the abundance fitness is -0.98 ± 0.24.

For SPPKPKTIVLPPNWKTARDPEGKIYYYHVITRQTQWDPETWESPGDDAS, the abundance fitness is -1 ± 0.21.

As for SPPKPKTIVLPPNWKTARDPEGKIYYYHVITRQTQWDPQTWESPGDDAS, the abundance fitness was -0.659 ± 0.044.

As for SPPKPKTIVLPPNWKTARDPEGKIYYYHVITRQTQWDPSTWESPGDDAS, the abundance fitness is -0.719 ± 0.13.

In the case of SPPKPKTIVLPPNWKTARDPEGKIYYYHVITRQTQWDPVTWESPGDDAS, the abundance fitness was -0.894 ± 0.059.

Take SPPKPKTIVLPPNWKTARDPEGKIYYYHVITRQTQWDPPTWESKGDDAS: the abundance fitness was -0.128 ± 0.1.

Consider SPPKPKTIVLPPNWKTARDPEGKIYYYHVITRQTQWDPPTWESAGDDAS, for which the abundance fitness was -0.115 ± 0.071.

For SPPKPKTIVLPPNWKTARDPEGKIYYYHVITRQTQWDPPTWESIGDDAS, the abundance fitness is -0.452 ± 0.18.

As to SPPKPKTIVLPPNWKTARDPEGKIYYYHVITRQTQWDPPTWESFGDDAS, the abundance fitness was -0.654 ± 0.25.

For SPPKPKTIVLPPNWKTARDPEGKIYYYHVITRQTQWDPPTWESGGDDAS, the abundance fitness was -0.128 ± 0.047.

For SPPKPKTIVLPPNWKTARDPEGKIYYYHVITRQTQWDPPTWESHGDDAS, the abundance fitness worked out at 0.036 ± 0.097.

Take SPPKPKTIVLPPNWKTARDPEGKIYYYHVITRQTQWDPPTWESEGDDAS: the abundance fitness was -0.096 ± 0.075.

SPPKPKTIVLPPNWKTARDPEGKIYYYHVITRQTQWDPPTWESCGDDAS: the abundance fitness is -0.448 ± 0.13.

Regarding SPPKPKTIVLPPNWKTARDPEGKIYYYHVITRQTQWDPPTWESDGDDAS, the abundance fitness was -0.108 ± 0.087.

For SPPKPKTIVLPPNWKTARDPEGKIYYYHVITRQTQWDYPTWESPGDDAS, the abundance fitness is -0.228 ± 0.11.

For the variant SPPKPKTIVLPPNWKTARDPEGKIYYYHVITRQTQWDHPTWESPGDDAS, the abundance fitness is -0.039 ± 0.14.

Turning to SPPKPKTIVLPPNWKTARDPEGKIYYYHVITRQTQWDQPTWESPGDDAS, the abundance fitness was -0.255 ± 0.069.

With SPPKPKTIVLPPNWKTARDPEGKIYYYHVITRQTQWDKPTWESPGDDAS, the abundance fitness was -0.121 ± 0.044.

Regarding SPPKPKTIVLPPNWKTARDPEGKIYYYHVITRQTQWDVPTWESPGDDAS, the abundance fitness was -0.108 ± 0.034.

Regarding SPPKPKTIVLPPNWKTARDPEGKIYYYHVITRQTQWDTPTWESPGDDAS, the abundance fitness was -0.398 ± 0.15.

In the case of SPPKPKTIVLPPNWKTARDPEGKIYYYHVITRQTQWDMPTWESPGDDAS, the abundance fitness is -0.043 ± 0.077.

In the case of SPPKPKTIVLPPNWKTARDPEGKIYYYHVITRQTQWDRPTWESPGDDAS, the abundance fitness was -0.251 ± 0.034.

Take SPPKPKTIVLPPNWKTARDPEGKIYYYHVITRQTQWDWPTWESPGDDAS: the abundance fitness is -0.184 ± 0.059.

With SPPKPKTIVLPPNWKTARDPEGKIYYYHVITRQTQWDNPTWESPGDDAS, the abundance fitness is -0.651 ± 0.33.
